Source: the supplement of paper PMC6755084

Tested on: F1*sub RNA substrate (template-directed ligation)
Assay: fraction ligated after 30 min (ligated reads / total reads); higher = more ligase activity; sequences stand for … in GAGACCGCAACTGAAAAGTTGT…AGTTCTGCACGTAGAAGCAAAAGGC
Conditions: 42 °C
Description: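 Chip-synthesised pool of F1* ligase ribozyme variants (all single and double substitutions, single, double and triple deletions in the catalytic core and GAA bulge, plus designed variants) was transcribed with T7 and reacted as a pool with excess substrate F1*sub for 30 min at 42 C in 50 mM EPPS pH 8.5, 25 mM MgCl2. Ligated and unligated bands were separated by PAGE, barcoded by RT and deep sequenced; fraction ligated = ligated reads / total reads per variant, relative activity = FL / FL of wild type (0.826). Sequences are the DNA template of the ribozyme.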

Sequence | fraction ligated
AACTTGTCGTAAGACACTTTGGATGGGTTGA [3d24] | 0.293
ACACTGTCGTAAGACACTTTGGATGGGTTGA [3d27] | 0.238
ACACTTGCGTAAGACACTTTGGATGGGTTGA [3d29] | 0.197
ACACTTGTCGAAGACACTTTGGATGGGTTGA [3d32] | 0.475
ACACTTGTCGTAAACACTTTGGATGGGTTGA [3d34] | 0.201
ACACTTGTCGTAAGAACTTTGGATGGGTTGA [3d36] | 0.218
ACACTTGTCGTAAGACACTTGGATGGGTTGA [3d39] | 0.157
ACACTTGTCGTAAGACACTTTGATGGGTTGA [3d40] | 0.0824
ACACTTGTCGTAAGACACTTTGGAGGGTTGA [3d42] | 0.115
ACACTTGTCGTAAGACACTTTGGATGGGTTA [3d44] | 0.217
ACACTTGTCGTAAGACACTTTGGATGGGTTG [3d45] | 0.739
ACACTTGTCGTAAGACACTTTGGATGGGTTGA [2d2] | 0.725
ACACTTGTCGTAAGACACTTTGGATGGTTGA [3d43] | 0.662
ACACTTGTCGTAAGACACTTTGGTGGGTTGA [3d41] | 0.0656
ACACTTGTCGTAAGACATTTGGATGGGTTGA [3d38] | 0.484
ACACTTGTCGTAAGACCTTTGGATGGGTTGA [3d37] | 0.627
ACACTTGTCGTAAGCACTTTGGATGGGTTGA [3d35] | 0.221
ACACTTGTCGTAGACACTTTGGATGGGTTGA [3d33] | 0.552
ACACTTGTCTAAGACACTTTGGATGGGTTGA [3d31] | 0.441
ACACTTGTGTAAGACACTTTGGATGGGTTGA [3d30] | 0.407
ACACTTTCGTAAGACACTTTGGATGGGTTGA [3d28] | 0.0846

Sequence | fraction ligated
ACATTGTCGTAAGACACTTTGGATGGGTTGA [3d26] | 0.0699
ACCTTGTCGTAAGACACTTTGGATGGGTTGA [3d25] | 0.616
ATACTGTCGTAAGACACTTTGGATGGGTTGA [3d48] | 0.361
ATACTTGCGTAAGACACTTTGGATGGGTTGA [3d50] | 0.177
ATACTTGTCGAAGACACTTTGGATGGGTTGA [3d53] | 0.268
ATACTTGTCGTAAACACTTTGGATGGGTTGA [3d55] | 0.112
ATACTTGTCGTAAGAACTTTGGATGGGTTGA [3d57] | 0.448
ATACTTGTCGTAAGACACTTGGATGGGTTGA [3d60] | 0.473
ATACTTGTCGTAAGACACTTTGATGGGTTGA [3d61] | 0.291
ATACTTGTCGTAAGACACTTTGGAGGGTTGA [3d63] | 0.0364
ATACTTGTCGTAAGACACTTTGGATGGGTTA [3d65] | 0.0347
ATACTTGTCGTAAGACACTTTGGATGGGTTG [3d66] | 0.244
ATACTTGTCGTAAGACACTTTGGATGGGTTGA [2d3] | 0.478
ATACTTGTCGTAAGACACTTTGGATGGTTGA [3d64] | 0.21
ATACTTGTCGTAAGACACTTTGGTGGGTTGA [3d62] | 0.0395
ATACTTGTCGTAAGACATTTGGATGGGTTGA [3d59] | 0.446
ATACTTGTCGTAAGACCTTTGGATGGGTTGA [3d58] | 0.412
ATACTTGTCGTAAGCACTTTGGATGGGTTGA [3d56] | 0.279
ATACTTGTCGTAGACACTTTGGATGGGTTGA [3d54] | 0.0939
ATACTTGTCTAAGACACTTTGGATGGGTTGA [3d52] | 0.24
ATACTTGTGTAAGACACTTTGGATGGGTTGA [3d51] | 0.734

Sequence | fraction ligated
ATACTTTCGTAAGACACTTTGGATGGGTTGA [3d49] | 0.0977
ATATTGTCGTAAGACACTTTGGATGGGTTGA [3d47] | 0.0915
ATCACGTCGTAAGACACTTTGGATGGGTTGA [3d105] | 0.749
ATCACTGCGTAAGACACTTTGGATGGGTTGA [3d107] | 0.818
ATCACTGTCGAAGACACTTTGGATGGGTTGA [3d110] | 0.775
ATCACTGTCGTAAACACTTTGGATGGGTTGA [3d112] | 0.747
ATCACTGTCGTAAGAACTTTGGATGGGTTGA [3d114] | 0.848
ATCACTGTCGTAAGACACTTGGATGGGTTGA [3d117] | 0.743
ATCACTGTCGTAAGACACTTTGATGGGTTGA [3d118] | 0.685
ATCACTGTCGTAAGACACTTTGGAGGGTTGA [3d120] | 0.148
ATCACTGTCGTAAGACACTTTGGATGGGTTA [3d122] | 0.298
ATCACTGTCGTAAGACACTTTGGATGGGTTG [3d123] | 0.74
ATCACTGTCGTAAGACACTTTGGATGGGTTGA [2d6] | 0.739
ATCACTGTCGTAAGACACTTTGGATGGTTGA [3d121] | 0.46
ATCACTGTCGTAAGACACTTTGGTGGGTTGA [3d119] | 0.108
ATCACTGTCGTAAGACATTTGGATGGGTTGA [3d116] | 0.719
ATCACTGTCGTAAGACCTTTGGATGGGTTGA [3d115] | 0.726
ATCACTGTCGTAAGCACTTTGGATGGGTTGA [3d113] | 0.749
ATCACTGTCGTAGACACTTTGGATGGGTTGA [3d111] | 0.824
ATCACTGTCTAAGACACTTTGGATGGGTTGA [3d109] | 0.756
ATCACTGTGTAAGACACTTTGGATGGGTTGA [3d108] | 0.823

Sequence | fraction ligated
ATCACTTCGTAAGACACTTTGGATGGGTTGA [3d106] | 0.761
ATCACTTGCGAAGACACTTTGGATGGGTTGA [3d142] | 0.743
ATCACTTGCGTAAACACTTTGGATGGGTTGA [3d144] | 0.758
ATCACTTGCGTAAGAACTTTGGATGGGTTGA [3d146] | 0.835
ATCACTTGCGTAAGACACTTGGATGGGTTGA [3d149] | 0.726
ATCACTTGCGTAAGACACTTTGATGGGTTGA [3d150] | 0.561
ATCACTTGCGTAAGACACTTTGGAGGGTTGA [3d152] | 0.061
ATCACTTGCGTAAGACACTTTGGATGGGTTA [3d154] | 0.567
ATCACTTGCGTAAGACACTTTGGATGGGTTG [3d155] | 0.805
ATCACTTGCGTAAGACACTTTGGATGGGTTGA [2d8] | 0.836
ATCACTTGCGTAAGACACTTTGGATGGTTGA [3d153] | 0.569
ATCACTTGCGTAAGACACTTTGGTGGGTTGA [3d151] | 0.0301
ATCACTTGCGTAAGACATTTGGATGGGTTGA [3d148] | 0.768
ATCACTTGCGTAAGACCTTTGGATGGGTTGA [3d147] | 0.757
ATCACTTGCGTAAGCACTTTGGATGGGTTGA [3d145] | 0.804
ATCACTTGCGTAGACACTTTGGATGGGTTGA [3d143] | 0.818
ATCACTTGCTAAGACACTTTGGATGGGTTGA [3d141] | 0.763
ATCACTTGGTAAGACACTTTGGATGGGTTGA [3d140] | 0.735
ATCACTTGTCAAGACACTTTGGATGGGTTGA [3d171] | 0.749
ATCACTTGTCGAAACACTTTGGATGGGTTGA [3d186] | 0.784
ATCACTTGTCGAAGAACTTTGGATGGGTTGA [3d188] | 0.805
